This experiment has as its target microtubules of transfected QBI-293 cells. Description: cell-based or functional assay.
In turn, “tau-4KR non-mimetic mutant (T40 K163/280/281/369R) (from UniProt P10636 1-441)” yielded a % MT bundling from tau-expressing cells of 50 % bundling. Substance “wild-type tau-T40 (2N4R), not acetylated (from UniProt P10636 2-441)” registered a % MT bundling from tau-expressing cells of 55 % bundling. The result for “tau-4KQ acetylation mimetic (T40 K163/280/281/369Q) (from UniProt P10636 1-441)” reads 7 % bundling; that for “tau-T40 K280Q mimetic (from UniProt P10636 1-441)”, 40 % bundling.

These data come from US20130251731A1, “Tau Acetylation in the Pathogenesis of Alzheimers Disease and Other Related Tauopathies” (THE TRUSTEES OF THE UNIVERSITY OF PENNSYLVANIA, priority 2012, published 2013).
